According to patent US20120277161A1, “INHIBITION OF MULTIPLE CELL ACTIVATION PATHWAYS” (INTER-K PTY LIMITED, priority 2009, published 2012):
Ends that are not written are not given here.

Key:
[1] = molecular target: MEK1 (h) (human) (UniProt Q02750); experiment: cell-based or functional assay
[2] = molecular target: human ERK2 (human) (UniProt P28482); experiment: cell-based or functional assay
Chain of human ERK2 (human) (P28482 whole entry): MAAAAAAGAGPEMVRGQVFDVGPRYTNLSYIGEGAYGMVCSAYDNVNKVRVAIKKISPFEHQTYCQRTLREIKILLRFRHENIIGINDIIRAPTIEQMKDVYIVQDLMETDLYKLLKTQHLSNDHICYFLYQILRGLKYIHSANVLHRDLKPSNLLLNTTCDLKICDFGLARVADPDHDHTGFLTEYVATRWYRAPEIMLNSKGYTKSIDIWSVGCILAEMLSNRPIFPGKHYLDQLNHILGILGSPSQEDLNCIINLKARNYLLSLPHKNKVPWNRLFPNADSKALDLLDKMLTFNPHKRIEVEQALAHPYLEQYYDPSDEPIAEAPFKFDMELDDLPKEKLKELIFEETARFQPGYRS

Binder: RSRARNPLYR (peptide, part only, also: 10 copies on 10-mer dendrimer framework) [peptide dendrimer Dend 10β5 presenting 10 monomer units of the β5 integrin derived peptide …]
- % inhibition of kinase activity, cell-free assay, dendrimer at 20 µM [1]: 92 % inhibition
- % inhibition of kinase activity, cell-free assay, dendrimer at 20 µM [2]: 96 % inhibition
